Test results reported in PMC4684421 (Protein expression and purification, 2015).
Read-outs that look alike come from different tables or passages of the source.

Assays:
Experiment in all cases: enzyme inhibition kinetics
Cathepsin B (human) [1] = target: Cathepsin B (human)
Cathepsin B (human) [2] = target: Cathepsin B (human); remark: listed apart in the source
Papain [3] = target: T1, Papain (UniProt P00784 134-345)
T1 sequence (looked up): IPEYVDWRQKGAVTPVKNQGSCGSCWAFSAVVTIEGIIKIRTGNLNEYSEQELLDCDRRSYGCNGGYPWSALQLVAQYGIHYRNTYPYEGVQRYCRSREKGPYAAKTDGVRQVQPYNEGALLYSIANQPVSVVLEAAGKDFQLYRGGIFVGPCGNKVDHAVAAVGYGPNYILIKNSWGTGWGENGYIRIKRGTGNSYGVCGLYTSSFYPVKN

Papain [4] = target: T1, Papain; remark: listed apart in the source

Human cystatin C (from UniProt P01034 27-146) (natural protein)
Ki (Cathepsin B (human) [1]): 0.06 nM | Ki (Cathepsin B (human) [2]): 0.1 nM

B1: Human cystatin C (natural protein, UniProt P01034 27-146, looked up)
chain: SSPGKPPRLVGGPMDASVEEEGVRRALDFAVGEYNKASNDMYHSRALQVVRARKQIVAGVNYFLDVELGRTTCTKTQPNLDNCPFHDQPHLKRKAFCSFQIYAVPWQGTMTLSKSTCQDA
Ki (Papain [3]): < 0.005 nM | Ki (Papain [4]): < 0.007 nM
